Experimental findings from FireProtDB (doi:10.1021/bi00437a058) are described below.

For this series the following is noted: Bacillus amyloliquefaciens, pH 6.3, Fluorescence, whole UniProt chain shown.
Where [1] appears, read: 25 °C, GdnHCl, MES 450 mM, reversible: yes (100%).
Where [2] appears, read: Thermal, MES 50 mM, reversible: yes (>85%).

B1: Ribonuclease wild type, P00648 (protein)
chain: MMKMEGIALKKRLSWISVCLLVLVSAAGMLFSTAAKTETSSHKAHTEAQVINTFDGVADYLQTYHKLPDNYITKSEAQALGWVASKGNLADVAPGKSIGGDIFSNREGKLPGKSGRTWREADINYTSGFRNSDRILYSSDWLIYKTTDHYQTFTKIR
A word on the Tm: it is the temperature at the midpoint of the melting transition. For the protein B1, under setting [1], the denaturant m value stood at 4.51 kcal/mol/M, the “denaturant midpoint (higher = more stable)” value was found to be 1.97 M and the unfolding free energy was 8.88 kcal/mol. In addition, under setting [2], the Tm is 53.9 °C and the “unfolding enthalpy (van 't Hoff)” value was determined as 125 kcal/mol.
